# Key:
# α5β1 integrin = biological target: T1, α5β1 integrin (Homo sapiens, UniProt P05556+P08648); assay: Immunoprecipitation of α5 integrin in Triton X-100 fractionated lysates, blotted for β1; format: cell-based; conditions: after AXT107 treatment; data not shown
# T1 construct: host or cells: human dermal microvascular endothelial cells (MECs)
# Description: Since β1 integrin is the only known β subunit to heterodimerize with the α5 integrin subunit, it unlikely that the α5 subunit, that was observed here in the insoluble fractions, originated from a heterodimeric integrin pair other than α5β1. Unfortunately, high background impaired the visualization of α5 integrin alone by immunofluorescence. Given the unexpected discovery that AXT107 dissociates the integrin heterodimer, this discovery was confirmed in several independent assays. […] Thus, interactions between Tie2 and heterodimerized α5β1 integrin appear to retain Tie2 at the EC-ECM interface.
# The isolation of Triton X-100 soluble and insoluble fractions was performed using modifications to previously-described procedures (see, e.g., Lampugnani et al., J Cell Biol. 1995; 129(1):203-217). FN1-coated six-well plates were seeded with 2.5×10^6 cells and cultured for forty-eight hours, as described above. The cultures were then serum starved for ninety minutes in EBM-2 media, treated with 100 μM AXT107 or DMSO vehicle, and fifteen minutes with 1 mM sodium vanadate. The cells were then stimulated with either 100 ng/ml VEGFA, 400 ng/ml Ang2, or PBS for fifteen minutes. The plates were then transferred to ice and washed twice with cold dPBS containing Ca^2+ and Mg^2+ and twice with EBM-2 media. […] Samples were analyzed by western blot as described above. […]
# VE-cadherin = assay: Western blot of VE-Cadherin from MEC monolayers; format: cell-based, human; conditions: three hours of AXT107 and Ang2 treatment
# Procedure: The jaggedness of these junctions is related to the structure of actin within the cell.
# For Ang1/2 signaling investigations, cell culture dishes (10 cm diameter) were coated with 5 μg/ml fibronectin (FN1; Sigma-Aldrich, St. Louis, Mo.) for two hours at 37° C. The FN1 solution was then removed by aspiration and 5×10^6 microvascular endothelial cells (MECs; Lonza, Walkersville, Md.) were plated in EGM-2MV media (Lonza) and cultured for forty-eight hours at 37° C. The cells were then serum starved for sixteen hours in serum-free EGM-2 base media (Lonza). […] The cells were then transferred to ice, washed twice with ice cold Dulbecco's phosphate-buffered saline (dPBS) containing Ca^2+ and Mg^2+, and collected by scraping in 500 μl of 1× Blue Loading Buffer (Cell Signaling, Danvers, Mass.). […] Specific proteins were identified by Western blot, using the following primary antibodies: Cell Signaling—phospho-Tie2 (Y992) (Cat #: 4221), Tie2 (Cat #: 7403), phospho-Stat3 (Y705) (Cat #: 4113), Stat3 (Cat #: 4904), phospho-Akt (S473) (Cat #: 4058), Akt (Cat #: 9272), phospho-p44/42 MAPK (T202/Y204) (Cat #: 4370), p44/42 MAPK (Cat #: 4695); BD Transduction Laboratories—β1 integrin (Cat #: 610467); Millipore—α5 integrin (Cat #: AB1928) and detected with HRP-conjugated goat anti-rabbit and sheep anti-mouse secondary antibodies (GE healthcare).
# [1] = biological target: T2, α5 and β1 integrin subunits (Homo sapiens, UniProt P05556+P08648); assay: Duolink protein interaction analysis of α5 and β1 integrin in MEC monolayers; format: cell-based; conditions: 100 μM AXT107 compared to vehicle
# T2 construct: host or cells: human dermal microvascular endothelial cells (MECs)
# Procedure: Additionally, changes in the interaction between the α5 and β1 subunits were further investigated using Duolink™ technology which can visualize individual interactions between α5 and β1 integrin subunits as distinct spots by fluorescence microscopy.
# Glass bottom, 96-well plates were coated with FN1, seeded with MECs, as described above for the immunofluorescence experiments. After growing for forty-eight hours, cells were serum starved for three hours, treated with 100 μM AXT107 or DMSO vehicle for ninety minutes, washed twice with dPBS containing Ca^2+ and Mg^2+, and fixed in 10% neutral buffered formalin. Cells were blocked in 5% normal goat serum; 0.3% Triton X-100 in dPBS containing Ca^2+ and Mg^2+ for one hour and incubated overnight at 4° C. with rabbit anti-α5 integrin and mouse anti-β1 integrin antibodies in PBS containing Ca^2+ and Mg^2+ with 1% BSA and 0.1% Triton X-100. Interaction spots were developed using DUOLINK green detection reagent according to the manufacturer's instructions and detected using the BD pathway 855 system.
# Tie2 = Tie2 activation in vivo, retinopathy of prematurity (ROP) mouse model
# Description: To investigate the effects of AXT107 on Tie2 activation in vivo, retinopathy of prematurity (ROP) mouse model was used. In this system, P7 pups are placed in 75% O2 for five days, resulting in a loss of retinal capillary density from hyperoxia and a rapid induction of neovascularization upon the pup's return to normoxic conditions. […] Increased levels of Ang2 in the vitreous contribute to vessel leakage and macular edema in various retinopathies.
# T2 sequence (P08648 42-894 limits assumed): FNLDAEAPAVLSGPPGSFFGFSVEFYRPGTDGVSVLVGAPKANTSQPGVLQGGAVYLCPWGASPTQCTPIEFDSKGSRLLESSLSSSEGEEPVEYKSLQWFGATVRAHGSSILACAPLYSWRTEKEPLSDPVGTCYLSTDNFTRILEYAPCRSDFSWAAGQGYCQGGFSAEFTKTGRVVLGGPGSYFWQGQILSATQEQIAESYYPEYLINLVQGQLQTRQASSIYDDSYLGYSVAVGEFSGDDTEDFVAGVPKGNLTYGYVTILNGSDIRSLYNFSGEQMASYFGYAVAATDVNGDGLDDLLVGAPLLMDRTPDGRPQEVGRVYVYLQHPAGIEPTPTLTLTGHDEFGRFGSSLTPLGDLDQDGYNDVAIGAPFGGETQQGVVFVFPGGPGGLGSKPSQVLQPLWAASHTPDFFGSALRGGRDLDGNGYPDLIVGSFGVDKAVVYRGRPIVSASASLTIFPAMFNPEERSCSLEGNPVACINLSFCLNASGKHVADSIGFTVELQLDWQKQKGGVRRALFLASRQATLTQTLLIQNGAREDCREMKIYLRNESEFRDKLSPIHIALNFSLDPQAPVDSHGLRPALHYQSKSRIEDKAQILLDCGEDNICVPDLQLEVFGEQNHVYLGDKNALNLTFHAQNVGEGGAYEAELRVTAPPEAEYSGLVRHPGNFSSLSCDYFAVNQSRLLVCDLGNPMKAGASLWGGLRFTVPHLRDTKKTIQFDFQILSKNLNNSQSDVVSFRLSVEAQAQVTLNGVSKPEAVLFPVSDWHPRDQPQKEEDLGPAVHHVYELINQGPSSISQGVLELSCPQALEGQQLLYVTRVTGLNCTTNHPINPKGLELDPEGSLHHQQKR
# T2 sequence (P08648 895-1049 limits assumed): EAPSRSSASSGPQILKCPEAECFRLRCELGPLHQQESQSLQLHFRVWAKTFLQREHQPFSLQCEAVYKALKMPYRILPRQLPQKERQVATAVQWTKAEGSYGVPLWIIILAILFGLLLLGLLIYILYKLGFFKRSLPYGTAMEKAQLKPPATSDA
# T2 sequence (P05556 21-798): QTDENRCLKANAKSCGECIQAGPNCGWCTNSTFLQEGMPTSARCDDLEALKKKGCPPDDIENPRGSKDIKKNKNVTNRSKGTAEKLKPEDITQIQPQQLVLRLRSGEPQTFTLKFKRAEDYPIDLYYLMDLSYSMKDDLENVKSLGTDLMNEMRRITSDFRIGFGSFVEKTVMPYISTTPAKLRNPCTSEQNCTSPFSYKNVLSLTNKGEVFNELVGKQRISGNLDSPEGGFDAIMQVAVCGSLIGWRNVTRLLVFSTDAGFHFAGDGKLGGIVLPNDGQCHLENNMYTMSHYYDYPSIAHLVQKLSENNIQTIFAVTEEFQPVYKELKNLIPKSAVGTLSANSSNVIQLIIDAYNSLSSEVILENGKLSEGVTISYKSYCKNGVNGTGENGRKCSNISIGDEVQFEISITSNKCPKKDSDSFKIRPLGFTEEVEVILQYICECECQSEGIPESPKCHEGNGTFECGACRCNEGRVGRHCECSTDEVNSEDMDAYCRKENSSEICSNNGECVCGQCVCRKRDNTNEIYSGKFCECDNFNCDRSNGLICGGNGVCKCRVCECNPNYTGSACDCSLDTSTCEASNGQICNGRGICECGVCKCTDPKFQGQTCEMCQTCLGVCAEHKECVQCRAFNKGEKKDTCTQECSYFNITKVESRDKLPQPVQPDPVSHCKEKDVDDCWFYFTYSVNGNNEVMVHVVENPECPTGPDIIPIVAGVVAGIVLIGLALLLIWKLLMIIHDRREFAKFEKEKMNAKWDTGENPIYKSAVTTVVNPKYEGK
# T1 sequence (P08648 42-894 limits assumed): as the sequence (P08648 42-894 limits assumed) above
# T1 sequence (P08648 895-1049 limits assumed): as the sequence (P08648 895-1049 limits assumed) above
# T1 sequence (P05556 21-798): as the sequence (P05556 21-798) above
sequence,measurement,setting,value
LRRFSTAPFAFIDINDVINF [AXT107],α5-β1 interaction by fraction after α5 immunoprecipitation,α5β1 integrin,interactions with β1 were only found in the soluble fractions
same,Total level of VE-cadherin,VE-cadherin,remained unchanged
same,Interactions between α5 and β1 integrin subunits (Duolink),[1],significantly reduced
same,Activation of Tie2 by Ang2 in vivo,Tie2,potentiates the activation of Tie2 by Ang2 both in vitro and in vivo

# From US11674959B2, “Methods for identifying and preparing pharmaceutical agents for activating Tie1 and/or Tie2 receptors” (The Johns Hopkins University, priority 2017, dated 2023)
